Test results as given in the supplement of paper PMC7877785.
± gives the uncertainty stated by the source.

Experiment: self-splicing fitness, log relative to wild type (ln ratio); higher = more splicing; Tetrahymena group I intron in knt gene, E. coli kanamycin selection, DiMSum; sequences stand for … in CUCUCU…GGAGGGAAAAGUUAUCAGGCAUGCACCUGGUAGCUAGUCUUUAAACCAAUAGAUUGCAUCGGUUUAAAAGGCAAGACCGUCAAAUUGCGGGAAAGGGGUCAACAGCCGUUCAGUACCAAGUCUCAGGGGAAACUUUGAGAUGGCCUUGCAAAGGGUAUGGUAAUAAGCUGACGGACAUGGUCCUAACCACGCAGCCAAGUCCUAAGUCAACAGAUCUUCUGUUGAUAUGGAUGCAGUUCACAGACUAAAUGUCGGUCGGGGAAGAUGUAUUCUUCUCAUAAGAUAUAGUCGGACCUCUCCUUAAUGGGAGCUAGCGGAUGAAGUGAUGCAACACUGGAGCCGCUGGGAACUAAUUUGUAUGCGAAAGUAUAUUGAUUAGUUUUGGAGUACUCGUGGUCG
Outline: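 DiMSum derived fitness as the error-weighted combination of fold changes across replicates, kanamycin versus no kanamycin, normalised to wild type. E. coli BL21(DE3) held the library, which randomised all eight P1ex-region intron nucleotides within the knt kanamycin-resistance gene on pET-22b(+). Six replicate transformations grew overnight at 37°C or 30°C on LB agar with or without 25 μg/mL kanamycin, also containing 100 μg/mL carbenicillin, 50 μM IPTG and 0.2% rhamnose, and pooled colonies were amplicon-sequenced on an Illumina HiSeq 2500.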

AGCUAGCAAUAUUACGGGGG
self-splicing fitness (ln) (30 °C): -3.05 ± 0.31 | self-splicing fitness (ln) (37 °C): -1.64 ± 0.27

AGCUAGCAAUAUUACGGUCU
self-splicing fitness (ln) (30 °C): -0.425 ± 0.068 | self-splicing fitness (ln) (37 °C): 0.136 ± 0.088

AGCUAGCAAUAUUACGGUGG
self-splicing fitness (ln) (30 °C): -2.04 ± 0.092 | self-splicing fitness (ln) (37 °C): -2.46 ± 0.17

AGCUAGCAAUAUUACGUACU
self-splicing fitness (ln) (30 °C): -0.454 ± 0.095 | self-splicing fitness (ln) (37 °C): -0.144 ± 0.12

AGCUAGCAAUAUUACGUAGU
self-splicing fitness (ln) (30 °C): -3.32 ± 0.12 | self-splicing fitness (ln) (37 °C): -2.85 ± 0.14

AGCUAGCAAUAUUACGUGCU
self-splicing fitness (ln) (30 °C): -3.87 ± 0.35 | self-splicing fitness (ln) (37 °C): -2.44 ± 0.23

AGCUAGCAAUAUUACGUGUU
self-splicing fitness (ln) (30 °C): -1.86 ± 0.14 | self-splicing fitness (ln) (37 °C): -2.11 ± 0.14

AGCUAGCAAUAUUACGUUAC
self-splicing fitness (ln) (30 °C): -3.52 ± 0.27 | self-splicing fitness (ln) (37 °C): -1.87 ± 0.18

AGCUAGCAAUAUUACGUUGG
self-splicing fitness (ln) (30 °C): -3.61 ± 0.19 | self-splicing fitness (ln) (37 °C): -2.03 ± 0.18

AGGAAGCAAUAUUACGAAUC
self-splicing fitness (ln) (30 °C): -2.86 ± 0.25

AGGAAGCAAUAUUACGAAUU
self-splicing fitness (ln) (30 °C): -2.58 ± 0.13 | self-splicing fitness (ln) (37 °C): -1.45 ± 0.15

AGGAAGCAAUAUUACGACCG
self-splicing fitness (ln) (30 °C): -0.0847 ± 0.2 | self-splicing fitness (ln) (37 °C): 0.135 ± 0.23

AGGAAGCAAUAUUACGAGGA
self-splicing fitness (ln) (30 °C): -2.39 ± 0.29 | self-splicing fitness (ln) (37 °C): -2.32 ± 0.22

AGGAAGCAAUAUUACGAGUC
self-splicing fitness (ln) (30 °C): -2.85 ± 0.35 | self-splicing fitness (ln) (37 °C): -1.61 ± 0.27

AGGAAGCAAUAUUACGAUCG
self-splicing fitness (ln) (30 °C): -1.27 ± 0.16 | self-splicing fitness (ln) (37 °C): -0.489 ± 0.16

AGGAAGCAAUAUUACGCACU
self-splicing fitness (ln) (30 °C): -0.845 ± 0.22 | self-splicing fitness (ln) (37 °C): -1.35 ± 0.29

AGGAAGCAAUAUUACGCAUG
self-splicing fitness (ln) (30 °C): -3.2 ± 0.16 | self-splicing fitness (ln) (37 °C): -1.31 ± 0.12

AGGAAGCAAUAUUACGCCAU
self-splicing fitness (ln) (30 °C): -3.16 ± 0.27 | self-splicing fitness (ln) (37 °C): -2 ± 0.38

AGGAAGCAAUAUUACGCCCG
self-splicing fitness (ln) (30 °C): -0.151 ± 0.17 | self-splicing fitness (ln) (37 °C): -0.394 ± 0.2

AGGAAGCAAUAUUACGCCGA
self-splicing fitness (ln) (30 °C): -1.95 ± 0.17 | self-splicing fitness (ln) (37 °C): -0.0948 ± 0.12

AGGAAGCAAUAUUACGCGCC
self-splicing fitness (ln) (30 °C): -1.61 ± 0.29 | self-splicing fitness (ln) (37 °C): -0.761 ± 0.27

AGGAAGCAAUAUUACGCUGA
self-splicing fitness (ln) (30 °C): -2.96 ± 0.23 | self-splicing fitness (ln) (37 °C): -1.97 ± 0.22

AGGAAGCAAUAUUACGCUUU
self-splicing fitness (ln) (30 °C): -4.15 ± 0.39 | self-splicing fitness (ln) (37 °C): -2.32 ± 0.27

AGGAAGCAAUAUUACGGAGG
self-splicing fitness (ln) (30 °C): -2.71 ± 0.34 | self-splicing fitness (ln) (37 °C): -2.28 ± 0.35

AGGAAGCAAUAUUACGGCUA
self-splicing fitness (ln) (30 °C): -0.35 ± 0.11 | self-splicing fitness (ln) (37 °C): 0.0571 ± 0.15

AGGAAGCAAUAUUACGGGCU
self-splicing fitness (ln) (30 °C): -1.72 ± 0.12 | self-splicing fitness (ln) (37 °C): -0.915 ± 0.13

AGGAAGCAAUAUUACGGGUA
self-splicing fitness (ln) (30 °C): -2 ± 0.24 | self-splicing fitness (ln) (37 °C): -1.6 ± 0.21

AGGAAGCAAUAUUACGGUGG
self-splicing fitness (ln) (30 °C): -3.94 ± 0.22 | self-splicing fitness (ln) (37 °C): -1.64 ± 0.28

AGGAAGCAAUAUUACGUACC
self-splicing fitness (ln) (30 °C): -0.353 ± 0.12 | self-splicing fitness (ln) (37 °C): -0.748 ± 0.16

AGGAAGCAAUAUUACGUAGU
self-splicing fitness (ln) (30 °C): -2.73 ± 0.15 | self-splicing fitness (ln) (37 °C): -2.63 ± 0.21

AGGAAGCAAUAUUACGUCCG
self-splicing fitness (ln) (30 °C): -0.623 ± 0.16 | self-splicing fitness (ln) (37 °C): 0.408 ± 0.2

AGGAAGCAAUAUUACGUCGC
self-splicing fitness (ln) (30 °C): -2.62 ± 0.28 | self-splicing fitness (ln) (37 °C): -2.06 ± 0.24

AGGAAGCAAUAUUACGUGAC
self-splicing fitness (ln) (30 °C): -3.65 ± 0.22 | self-splicing fitness (ln) (37 °C): -2.45 ± 0.15

AGGAAGCAAUAUUACGUGUC
self-splicing fitness (ln) (30 °C): -3.14 ± 0.27 | self-splicing fitness (ln) (37 °C): -1.57 ± 0.19

AGGCAGCAAUAUUACGAAAG
self-splicing fitness (ln) (30 °C): -3.39 ± 0.22 | self-splicing fitness (ln) (37 °C): -2.46 ± 0.22

AGGCAGCAAUAUUACGACCU
self-splicing fitness (ln) (30 °C): -1.51 ± 0.14 | self-splicing fitness (ln) (37 °C): -1.28 ± 0.17

AGGCAGCAAUAUUACGACUA
self-splicing fitness (ln) (30 °C): 0.127 ± 0.11 | self-splicing fitness (ln) (37 °C): -0.125 ± 0.12

AGGCAGCAAUAUUACGAGCG
self-splicing fitness (ln) (30 °C): -1.13 ± 0.074 | self-splicing fitness (ln) (37 °C): 0.237 ± 0.088

AGGCAGCAAUAUUACGAGGG
self-splicing fitness (ln) (30 °C): -2.52 ± 0.11 | self-splicing fitness (ln) (37 °C): -2.83 ± 0.23

AGGCAGCAAUAUUACGAUUC
self-splicing fitness (ln) (30 °C): -1.71 ± 0.13 | self-splicing fitness (ln) (37 °C): -0.305 ± 0.16

AGGCAGCAAUAUUACGCAUG
self-splicing fitness (ln) (30 °C): -2.69 ± 0.17 | self-splicing fitness (ln) (37 °C): -0.809 ± 0.17

AGGCAGCAAUAUUACGCCCU
self-splicing fitness (ln) (30 °C): -2.89 ± 0.4

AGGCAGCAAUAUUACGCCGG
self-splicing fitness (ln) (30 °C): -1.09 ± 0.15 | self-splicing fitness (ln) (37 °C): -1.66 ± 0.17

AGGCAGCAAUAUUACGCGCC
self-splicing fitness (ln) (30 °C): -2.4 ± 0.32 | self-splicing fitness (ln) (37 °C): -0.401 ± 0.29

AGGCAGCAAUAUUACGGACA
self-splicing fitness (ln) (30 °C): -0.916 ± 0.12 | self-splicing fitness (ln) (37 °C): -0.346 ± 0.13

AGGCAGCAAUAUUACGGCCU
self-splicing fitness (ln) (30 °C): -3.36 ± 0.18 | self-splicing fitness (ln) (37 °C): -2.37 ± 0.24

AGGCAGCAAUAUUACGGGAC
self-splicing fitness (ln) (30 °C): -3.48 ± 0.23 | self-splicing fitness (ln) (37 °C): -1.94 ± 0.19
